In the Human Domainome abundance scans (Beltran et al. 2025) one finds abundance fitness data, which are given here for 48 variants.

Sequences and labels used below:
B1: SH3 and PX domain-containing protein 2B, residues 155 to 209; numbered along this chain, A1X283 (parent)
chain: EQYVVVANYQKQESSEISLSVGQVVDIIEKNESGWWFVSTAEEQGWVPATCLEGQ

± gives the uncertainty stated by the source.

In this series the parent is B1. The series can be described thus: abundance fitness (aPCA) (normalised: wild type 0, dead -1); higher = more abundant; growth selection in yeast, the domain comes from the species named. The following applies: Homo sapiens.
Regarding EQYVVVANYQKQESSEISPSVGQVVDIIEKNESGWWFVSTAEEQGWVPATCLEGQ, the abundance fitness was -0.831 ± 0.11.

Turning to EQYVVVANYQKQESSEISWSVGQVVDIIEKNESGWWFVSTAEEQGWVPATCLEGQ, the abundance fitness is -0.899 ± 0.11. Under EQYVVVANYQKQESSEIFLSVGQVVDIIEKNESGWWFVSTAEEQGWVPATCLEGQ stands -0.157 ± 0.42; under EQYVVVANYQKQESSEIRLSVGQVVDIIEKNESGWWFVSTAEEQGWVPATCLEGQ, -0.646 ± 0.31. With EQYVVVANYQKQESSEIILSVGQVVDIIEKNESGWWFVSTAEEQGWVPATCLEGQ, the abundance fitness was -0.528 ± 0.24.

Consider EQYVVVANYQKQESSESSLSVGQVVDIIEKNESGWWFVSTAEEQGWVPATCLEGQ, for which the abundance fitness was -0.576 ± 0.18. Regarding EQYVVVANYQKQESSERSLSVGQVVDIIEKNESGWWFVSTAEEQGWVPATCLEGQ, the abundance fitness is -0.332 ± 0.061. On to EQYVVVANYQKQESSEHSLSVGQVVDIIEKNESGWWFVSTAEEQGWVPATCLEGQ, for which the abundance fitness was -0.715 ± 0.24.

As to EQYVVVANYQKQESSEQSLSVGQVVDIIEKNESGWWFVSTAEEQGWVPATCLEGQ, the abundance fitness was -0.672 ± 0.19. Regarding EQYVVVANYQKQESSEGSLSVGQVVDIIEKNESGWWFVSTAEEQGWVPATCLEGQ, the abundance fitness is -0.863 ± 0.086. EQYVVVANYQKQESSEPSLSVGQVVDIIEKNESGWWFVSTAEEQGWVPATCLEGQ: the abundance fitness is -0.769 ± 0.17.

In the case of EQYVVVANYQKQESSENSLSVGQVVDIIEKNESGWWFVSTAEEQGWVPATCLEGQ, the abundance fitness is -0.733 ± 0.47. On to EQYVVVANYQKQESSETSLSVGQVVDIIEKNESGWWFVSTAEEQGWVPATCLEGQ, for which the abundance fitness is -0.114 ± 0.12. In the case of EQYVVVANYQKQESSELSLSVGQVVDIIEKNESGWWFVSTAEEQGWVPATCLEGQ, the abundance fitness is -0.055 ± 0.084. With EQYVVVANYQKQESSEVSLSVGQVVDIIEKNESGWWFVSTAEEQGWVPATCLEGQ, the abundance fitness is -0.048 ± 0.086. EQYVVVANYQKQESSEFSLSVGQVVDIIEKNESGWWFVSTAEEQGWVPATCLEGQ: the abundance fitness was -0.597 ± 0.16.

On to EQYVVVANYQKQESSEDSLSVGQVVDIIEKNESGWWFVSTAEEQGWVPATCLEGQ, for which the abundance fitness is -0.889 ± 0.37. EQYVVVANYQKQESSEMSLSVGQVVDIIEKNESGWWFVSTAEEQGWVPATCLEGQ: the abundance fitness is -0.053 ± 0.12.

With EQYVVVANYQKQESSEKSLSVGQVVDIIEKNESGWWFVSTAEEQGWVPATCLEGQ, the abundance fitness was -0.692 ± 0.14.

As for EQYVVVANYQKQESSEESLSVGQVVDIIEKNESGWWFVSTAEEQGWVPATCLEGQ, the abundance fitness is -0.99 ± 0.15. The result for EQYVVVANYQKQESSEISLSNGQVVDIIEKNESGWWFVSTAEEQGWVPATCLEGQ reads -0.342 ± 0.12; that for EQYVVVANYQKQESSEISLSAGQVVDIIEKNESGWWFVSTAEEQGWVPATCLEGQ, -0.043 ± 0.097; that for EQYVVVANYQKQESSEISLSSGQVVDIIEKNESGWWFVSTAEEQGWVPATCLEGQ, -0.238 ± 0.1. As for EQYVVVANYQKQESSEISLSMGQVVDIIEKNESGWWFVSTAEEQGWVPATCLEGQ, the abundance fitness was -0.066 ± 0.094. The result for EQYVVVANYQKQESSEISLSKGQVVDIIEKNESGWWFVSTAEEQGWVPATCLEGQ reads 0.092 ± 0.2; that for EQYVVVANYQKQESSEISLSEGQVVDIIEKNESGWWFVSTAEEQGWVPATCLEGQ, 0.096 ± 0.1; that for EQYVVVANYQKQESSEISLSCGQVVDIIEKNESGWWFVSTAEEQGWVPATCLEGQ, -0.025 ± 0.1. As for EQYVVVANYQKQESSEISLSGGQVVDIIEKNESGWWFVSTAEEQGWVPATCLEGQ, the abundance fitness was -0.453 ± 0.082. The result for EQYVVVANYQKQESSEISLSFGQVVDIIEKNESGWWFVSTAEEQGWVPATCLEGQ reads -0.286 ± 0.099. In the case of EQYVVVANYQKQESSEISLSPGQVVDIIEKNESGWWFVSTAEEQGWVPATCLEGQ, the abundance fitness was -0.315 ± 0.11. On to EQYVVVANYQKQESSEISLSIGQVVDIIEKNESGWWFVSTAEEQGWVPATCLEGQ, for which the abundance fitness is -0.166 ± 0.12. On to EQYVVVANYQKQESSEISLSQGQVVDIIEKNESGWWFVSTAEEQGWVPATCLEGQ, for which the abundance fitness was -0.036 ± 0.11. With EQYVVVANYQKQESSEISLSTGQVVDIIEKNESGWWFVSTAEEQGWVPATCLEGQ, the abundance fitness was -0.061 ± 0.14.

As for EQYVVVANYQKQESSEISLSYGQVVDIIEKNESGWWFVSTAEEQGWVPATCLEGQ, the abundance fitness is -0.444 ± 0.12. With EQYVVVANYQKQESSEISLSRGQVVDIIEKNESGWWFVSTAEEQGWVPATCLEGQ, the abundance fitness is -0.005 ± 0.071. For the variant EQYVVVANYQKQESSEISLSDGQVVDIIEKNESGWWFVSTAEEQGWVPATCLEGQ, the abundance fitness is -0.593 ± 0.12.

Turning to EQYVVVANYQKQESSEISLSWGQVVDIIEKNESGWWFVSTAEEQGWVPATCLEGQ, the abundance fitness was -0.566 ± 0.13. In the case of EQYVVVANYQKQESSEISLSLGQVVDIIEKNESGWWFVSTAEEQGWVPATCLEGQ, the abundance fitness is -0.188 ± 0.086. As to EQYVVVANYQKQESSEISLSVGGVVDIIEKNESGWWFVSTAEEQGWVPATCLEGQ, the abundance fitness is -0.263 ± 0.068.

For EQYVVVANYQKQESSEISLSVGDVVDIIEKNESGWWFVSTAEEQGWVPATCLEGQ, the abundance fitness was -0.034 ± 0.087.

EQYVVVANYQKQESSEISLSVGMVVDIIEKNESGWWFVSTAEEQGWVPATCLEGQ: the abundance fitness is -0.039 ± 0.12. Under EQYVVVANYQKQESSEISLSVGHVVDIIEKNESGWWFVSTAEEQGWVPATCLEGQ stands -0.136 ± 0.13; under EQYVVVANYQKQESSEISLSVGFVVDIIEKNESGWWFVSTAEEQGWVPATCLEGQ, -0.741 ± 0.16; under EQYVVVANYQKQESSEISLSVGPVVDIIEKNESGWWFVSTAEEQGWVPATCLEGQ, -0.978 ± 0.2.

With EQYVVVANYQKQESSEISLSVGNVVDIIEKNESGWWFVSTAEEQGWVPATCLEGQ, the abundance fitness is -0.037 ± 0.18.

On to EQYVVVANYQKQESSEISLSVGEVVDIIEKNESGWWFVSTAEEQGWVPATCLEGQ, for which the abundance fitness is 0.001 ± 0.09.

Turning to EQYVVVANYQKQESSEISLSVGIVVDIIEKNESGWWFVSTAEEQGWVPATCLEGQ, the abundance fitness is -0.308 ± 0.15.

For the variant EQYVVVANYQKQESSEISLSVGLVVDIIEKNESGWWFVSTAEEQGWVPATCLEGQ, the abundance fitness was -0.288 ± 0.085.
